# Source: publication PMC4879523
# B1: LANCL2 fused to EGFP (receptor)
# chain: MGETMSKRLKLHLGGEAEMEERAFVNPFPDYEAAAGALLASGAAEETGCVRPPATTDEPGLPFHQDGKIIHNFIRRIQTKIKDLLQQMEEGLKTADPHDCSAYTGWTGIALLYLQLYRVTCDQTYLLRSLDYVKRTLRNLNGRRVTFLCGDAGPLAVGAVIYHKLRSDCESQECVTKLLQLQRSVVCQESDLPDELLYGRAGYLYALLYLNTEIGPGTVCESAIKEVVNAIIESGKTLSREERKTERCPLLYQWHRKQYVGAAHGMAGIYYMLMQPAAKVDQETLTEMVKPSIDYVRHKKFRSGNYPSSLSNETDRLVHWCHGAPGVIHMLMQAYKVFKEEKYLKEAMECSDVIWQRGLLRKGYGICHGTAGNGYSFLSLYRLTQDKKYLYRACKFAEWCLDYGAHGCRIPDRPYSLFEGMAGAIHFLSDVLGPETSRFPAFELDSSKRD
# modifications: N-terminal glycine myristoylation
# How the values were obtained:
# [1] = target: α subunit of the chimeric Gi protein fused to TagRFP
# [2] = target: α subunit of the chimeric Gi protein fused to TagRFP; experiment: FRET or BRET; sensitized-emission FRET in live HeLa cells 2 days after co-transfection; donor EGFP at the C-terminus of LANCL2 forms, acceptor TagRFP at the N-terminus of the chimeric Gi α subunit; apparent FRET efficiency in plasmamembrane or whole-cell ROIs
binder,measurement,setting,value
B1,"[cAMP]i in HeLa cells overexpressing LANCL2-GFP, 30 s after 5 μM ABA, over basal, unstimulated values",[1],170%
same,apparent FRET efficiency (plasmamembrane ROIs),[2],20%
same,apparent FRET efficiency (whole-cell regions),[2],20%
